Results from the DeepSol protein solubility set.

assay: soluble on expression in E. coli; label from the status in PepcDB or PDB records

Sequence	soluble on expression in E. coli
MKAFISENVRGIYAFDENGNLIEKRYFTDKPEKVLDQLLKGEITKDLEELLNSLKEKGYDEFVFEHPELSRRAKELGFSATTEFPNIAGERLRSNPEEFLGENWFEEYYKVGVALTRMRIQEQSGARDKMVIQAIEALDDVDKVINLLVARLREWYSLHFPELDELLPKHPQYVAFVKTVGHRDNINEEVLRELGLSEEKIKKILEAKEKTMGAWMDQTDIEVVRQLAEEIDRLYQLRKKLEDYIDRAMDDVAPNLKALVGAKLAARLISLAGGLRELAMMPSSTIQVLGAEKALFRHLRTGAKPPKHGVIYQYPAINRSPWWQRGKIARALAGKLAIAARVDYFSGEYIAEELKKELEARIREIKEKYPKPPKRKREERKGKKPWKKDKKKKKKKEKPRRRAAALEHHHHHH	not soluble
MGTSSFTFPGFYRAKNMRSPECLDLLDSMNHFILHCHWEHADLNRTSLTERKRLGSKYEYENWFEEKRENSGTKFIKRSSSSKEIHYNCALVTNGDNRQFKKSKKLDQYCASGKVQFHDSGSVDVLGCCSHAGHDT	not soluble
MSLKAIIYCRVSTEKTSQETSLARQKHELLTLANKHALEVVATLEERASGFSLDRPVLLECIDAFQRGQADILLCQDDTRLARGHSKIALLHQLRKLGVSIYTIRDQGELRLSEADEMVLDIVAIVEEYQRKLHNKKIKRGMKQAVKNGYRPERNIKQGVSGGRERKELPIKEIVRLRQKNLTFHEIALTLQGLGFNVSKATVHRRYQEYMDEQLHGEGHHHHHH	soluble
MGSSHHHHHHSSGLVPRGSHMSQFSFTKMHGLGNSYIYVNMFEEQIPEEDLALVAEKVSNINTGIGADGMILICPSDVAPVKMRMFNNDGSEGKSCGNGLRCVAKYAYEHKLVEDTVFTIETLAGIVTAEVTVEEGKVTLAKIDMGAPRLTRAEIPMLGEGETPFIRENFLYNNHRYAFTAVSMGNPHAVIFVDDVEQAPLTTLGPVLETHEMFPERVNVEFIEILNEEEMNFRVWERGSGVTQACGTGACAAVVASILNGKMERGKEITVHLAGGDLMIAWTEEGNVLMKGPAEVICRGVYEYKIEA	soluble
MGSDKIHHHHHHMAKVIKTKKGLALNLKGKPLPEMLAEPAQSPTYAVVPDDFEGVIPKVTARPGDKVRAGSALMHHKAYPEMKFTSPVSGEVIAVNRGAKRKVLSIEVKPDGLNEYESFPVGDPSALSAEQIKELLLSSGMWGFIKQRPYDIVATPDIAPRDIYITANFTAPLAPDFDFIVRGEERALQTAIDALAKLTTGKVYVGLKPGSSLGLHNAEIVEVHGPHPAGNVGVLINHTKPINRGETVWTLKATDLIVIGRFLLTGKADFTRMIAMTGSDAAAHGYVRIMPGCNVFASFPGRLTIKESHERVIDGNVLTGKKLCEKEPFLSARCDQITVIPEGDDVDELFGWAAPRLDQYSMSRAYFSWLQGKNKEYVLDARIKGGERAMIMSNEYDRVFPMDIYPEYLLKAIIAFDIDKMEDLGIYEVAPEDFATCEFVDTSKIELQRIVREGLDMLYKEMN	not soluble
MGSDKIHHHHHHMAVPLPVSARKDTVVPVLMYHDVSNHFHDPFTISPALFAAHMEWLHAAGYRAVTVGEALAGRGATAGKMVVITFDDGYASFLDYVHPLLLQYGFSAAISVIGSHVGTWLERDGRRPMLSWDEYRYLAARRVEVGCHAYHLHAIERLRHASADELAEDLELFQKTMAREMGRRATLLAWPYGIYTSERVQIARQAGFVHILTSNEGYVDDGTDPGAIPRLNIDNRLDLVSFSNYLRGE	not soluble
MKWEMGLQEEYIELIKAGKKKIEGRLYDEKRRQIKPGDIIIFEGGKLKVKVKGIRVYSSFKEMLEKEGIENVLPGVKSIEEGVKVYRQFYDEEREKKYGVVAIEIEPIE	soluble
SEEDIDTRKINNSFLRDHSYATEADIISTVEFNHTGELLATGDKGGRVVIFQREQESKNQVHRRGEYNVYSTFQSHEPEFDYLKSLEIEEKINKIRWLPQQNAAYFLLSTNDKTVKLWKVSERDKRPEGYNLKDEEGRLRDPATITTLRVPVLRPMDLMVEATPRRVFANAHTYHINSISVNSDYETYMSADDLRINLWNFEITNQSFNIVDIKPANMEELTEVITAAEFHPHHCNTFVYSSSKGTIRLCDMRASALCDRHTKFFEEPEDPSNRSFFSEIISSISDVKFSHSGRYIMTRDYLTVKVWDLNMENRPIETYQVHDYLRSKLCSLYENDCIFDKFECVWNGSDSVIMTGSYNNFFRMFDRNTKRDVTLEASRENSKPRAILKPRKVCVGGKRRKDEISVDSLDFSKKILHTAWHPSENIIAVAATNNLYIFQDKVN	not soluble
GANDRYTETKRIVDSHCLHTICSSGRCPNMGECWGKGTATFMIGGDICTRSCKFCNTQTGRPHPLDANEPTHVAESIALMKLDHAVVTSVDRDDLPDLGAGHWAHTIREIKRLNPQTTIEVLIPDFQGRMELVDLVIEANPDIISHNMETVRRISPLVRSAANYDTSLQVIGHIARSGTKSKSGIMVGLGETPQEVETIMDDLLAVGCQILTIGQYLQPTHRHYPVAEYVTPQQFATYKTIGLEKGFSIVESAPLVRSSYHAEKHIR	not soluble
MAMKRREMLSLCGKSVIALGCGGLPAILRAQGRFPSKALTYVVAYTPGSANDILVRILAPELGTQLGQSIIVDNKPGAGGSIGMAAVAQSKADGYTLGLGSTATMAINRALYKNLPYDPLRDFESVVKFASTANVLVVPAGGPAKTLADLKPRDGKPLMFSSPGNGTTQHLAGVLFSSTTKLPTEHVPYRGPAESVMAVASGEVDFSLASLPSALAQIRAGRLRVLGCTSLKPPSSLPQAVSLAEQGLPGFERTEVWFGLVVPSGTPDQARLALEQASVQVLGKQDVREKLEQAGYQPANPQSEGKFDPFVREQVAFWADLVKQAGASIDLEHHHHHH	soluble
MSLDSQVLEHVLPSHFAKYDKGGDEFYDLISAFHKSVRGSAPDAALYWYCRILAGGGDPLYVARRLLAIATEDIGNADPRAMQVALNAWDIFQRVGPSEGERAIAQATLYLASAPKSNAVYTAFNQAKHDAAHLPSYPVPEHLRNAPTQIMKELGFGAQYRYAHDEVGAFAAGENYFPEILKTKHYYQPTDRGLEKQIKDKLDYLASQNNQSENKRYDEGHHHHHH	soluble
MAHHHHHHMEYAQKSARLPRSAEEKEQWKRVIVILEHCPLQTIQTDRGFELLSDRHRSYHARHNQDPADWRPDVVHQCLLHLQDSPLNRAGMLEVFLRTKKQVCIAVDPRLRVPRNVRLFEKMMVSLLFKLKVRASTGYLSLLRVVGNPITDHIPAGTRLYRVEKDGDLIDPFTFCASCGYAADVLDAQRTDRKISLARRRLTSSTSGTLEETTAEAGTEEFAKAQRKAAERRQFQPFAFIIGGMSRGDVSVDYARPGEVSSIRLGDRGMSAAAVISTLLHGFEEEWLREDNEAC	soluble
GPLGSASAAASGKEGVEITYGSAIKLMHEKTKFRLHSHDVPYGSGSGQQSVTGFPGVVDSNSYWIVKPVPGTTEKQGDAVKSGATIRLQHMKTRKWLHSHLHASPISGNLEVSCFGDDTNSDTGDHWKLIIEGSGKTWKQDQRVRLQHIDTSGYLHSHDKKYQRIAGGQQEVCGIREKKADNIWLAAEGVYLPLNESSK	soluble
MSAEQFVGRWKLVESENFEDYLKEVGVGLLLRKAACAAKPTLEIKVNGNKWHVNQLSTFKNTTLEFTLGVEFDETTPDGRQFKSTITIEDGKVVHVQKRIKDSDHDSVITRWFEGEKLITTLQSGSVISRRAYIRE	not soluble
MGSDKIHHHHHHMKVLNKPLEGVKVIDLTYFVAGPGTSKILADWGADVIKVEPSFGDPGRKTGATMTMPIDDYNNPFYSTYNSNKRGLSINLKSETGIEIMDKLLSEANVFVSSYRTGALKRLGLDYESLSKKHPHLIWGQINGFGDFGPAKDNAGFDTVAFWARSGAMLDIAEKDTSPINPPIAFGDATTSCSLSGGICAALYQQAKTGKGQKVMASLFGQAIWNASSLLASTQFSDEYPKTRKNAISPVINSYRCKDGKWIFLSILEHERYFEALCRLFGREDLIKEEKFASSVESKKNATELINILDGEFAKFTQNEMVEKLTAADIAHEKIQHVNDVVTDEQAIANNYIYEHTSKNGNKTMLASTPVKFGNIEVNMTCDAPLIGEHSDEILRELGYSDSDIEALIESGIVTMNKEACEIC	not soluble
MQVIKTNETFDSLDKSKLERMLDIKEAHREGHLTLEEAKERMKKEVGSISPEEFAAAEQLFKERDQDECQNEDVRTMLQLFEGLINPIRPDLPFGHPIDAYLRENDKAKELLDQADALLERTFIPNPWIELMETLMGYKLHFARKQNQLYSTLEQKGFDRPSTTMWTYDDHIRDEMNKAMSLLREKDYDSFPAAYKEMAIVLRDLMEKEELILYPTSLKLISDKEFEEMKHGDREIGFFLIDMPELDAPAKQSKEAHGQSFMAELGALLAKHGMGTGGQDDKAILDVAEGKLTLEQINLLFRHLPVDISFVDENELVCFYTDTKHRVFPRSKGVIGREVRNCHPPKSVHIVEEIIDKFRRGEQDRAEFWINKPGVFIYIVYVAIRDADGRFRGVMEMMQDCTRIRSLEGSRTLLTWDEEQSPAQGSKESESDTAGEDGIRPDTKLKSLLQRYPQLMDDLPTISSKFTLLRSPMAKVILPVATIKMMSERADIPSDMLIGKLESLIASYNKPDRSEEK	not soluble
MSLSGIFNWSLDVFADIYNTLKFESNIDLDTIDFTSIKNDLANVLITPVPLDQSRSKLGDASKPVALPSGDEVKLNQASIEITGVLSNELDLDELNTAELLYNASDLSYKKGTSIGDSARLAYYLRAHYILNIVGYLVSHKRLDIITNNNQVLFDNILKSFSKIYTLSGKLNDMIDKQKVTGDINNLAFINCINYSRSQLFNAHELLGQVVFGLADNYYESYGTLNNYKSLVEFILKNISDEDVFVIHFLPSTLQLFKKLLQLGEESLVDQFYKTITSSILKDYEANNFSKSEDIDLSKSKLSGFEIVTSFIFLTEFIPWCKQLSSRTAKYDFKDDILKYMEFLISYGVMERLLSYCSETANAKTQQVYDWSNMYDFRALLQKNFPRLTPAKFHYPGNQELLNAVRPGYENVSKLIDISFLTLDPSLNETLVSPFFQSFFSVFISNAAVVMTSLRDSEEDFVLSSLNESDEGHHHHHH	soluble
MGSSHHHHHHSSGLVPRGSRHSTLDFMLGAKADGETILKGLQSIFQEQGMAESVHTWQDHGYLATYTNKNGSFANLRIYPHGLVLLDLQSYDGDAQGKEEIDSILNKVEERMKELSQDSTGRVKRLPPIVRGGAIDRYWPTADGRLVEYDIDEVVYDEDSPYQNIKILHSKQFGNILILSGDVNLAESDLAYTRAIMGSGKEDYTGKDVLILGGGDGGILCEIVKLKPKMVTMVEIDQMVIDGCKKYMRKTCGDVLDNLKGDCYQVLIEDCIPVLKRYAKEGREFDYVINDLTAVPISTSPEEDSTWEFLRLILDLSMKVLKQDGKYFTQGNCVNLTEALSLYEEQLGRLYCPVEFSKEIVCVPSYLELWVFYTVWKKAKP	soluble
MAHHHHHHMDAPEWTKDAQSIQGAKDYVRQASIVDFYEMICRNIFTHHPANLTEFCLRIVKDIMNGTEITSAADFQPKRIDDNKYMRDMAMCSFLDGWILELLRERPGTHLERMEFHKRYLEGLQSESDTGK	soluble
MSHRSPSVTPAVSVLIPAWNAVRHLPAALDGLLSQTFQDWEAVVVDDGSQDETPALLAAYAARDARIRPLHVEHGGIVHALNHGLLHVRGRHVARMDADDTCHPERLALQCHALDNAPHLGLVASRVTFGGDAAQCGGFVRYVDWTNSLLCHEDIALGRFRESPLVHPSVMFRRELIDRFGPYANGPFPEDYELWLRWLEAGVRMEKLPEHLLVWNDPPGRLTRTHDNYAEAGFVALRTRYLARWLCAHNPQHPDVWVIGAGKASRRRARPLCEHGIRIRAWVDIDPHKIGNIVEGLPVVGREAMPAPGQGFMLAFLAGHGAAEELELFLHGAGYLPGQDYLLASLEHHHHHH	soluble
